# Measurements: PMC9585320 (Frontiers in Molecular Biosciences, 2022)
# T1: MazF9 toxin, (His)6MazF(FLAG)3 (Mycobacterium tuberculosis, UniProt P71650 1-118)
# T1 chain: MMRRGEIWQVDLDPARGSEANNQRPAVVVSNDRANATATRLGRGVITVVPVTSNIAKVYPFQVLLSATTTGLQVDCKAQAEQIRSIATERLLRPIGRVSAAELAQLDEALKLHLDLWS
# Experiments:
# [1] = biological target: T1, MazF9 toxin, (His)6MazF(FLAG)3; experiment: MST
# MazF6 library = experiment: flow cytometry on cells
Binder,Kd [1],Kd (MazF6 library)
LEDDYANAWQEWSAAGDTDAWEQTVGDGVGDAPR [C-terminal MazE9 peptide (residues 43-76)],5.2 nM,–
RLAERDAEILATNTSATGDLDTLAGHCARTALDID [C-terminal MazE3 peptide (residues 72-106)],173 nM,–
"MazE6 antitoxin, full length, purified (natural protein) MKTAISLPDETFDRVSRRASELGMSRSEFFTKAAQRYLHELDAQLLTGQIDRALESIHGTDEAEALAVANAYRVLETMDDEW",–,0.13 nM
